The assay concerns the target Nb9-R59A (alpaca). Nature of the assay: BLI. Background: BLI is a label-free optical method that tracks binding on a fibre tip over time.

One may read the Kd as a measure of binding affinity in units of concentration. Higher therefore signals lower affinity. For orientation: koff means the rate constant with which the complex falls apart. As a reminder, the kon is the second-order rate constant of association. Higher therefore signals faster complex formation.

Nb9-R59A (alpaca), sequence (heavy, as listed by the source): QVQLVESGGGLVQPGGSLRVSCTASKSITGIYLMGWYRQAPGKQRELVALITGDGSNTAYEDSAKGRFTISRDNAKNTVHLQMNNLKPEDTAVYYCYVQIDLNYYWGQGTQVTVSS

On to “MERS-CoV RBD (from UniProt K9N5Q8) (domain or fragment)”, for which the Kd amounted to 4.58 µM, the koff was 0.0624 s⁻¹ and the kon is 13600 M⁻¹ s⁻¹.
